Data published in US20170037111A1, “Novel peptides and combination of peptides for use in immunotherapy against ovarian cancer and other cancers” (immatics biotechnologies GmbH, priority 2015, published 2017).
Each block holds one substance with its values, some of them ahead of it.

Biological target: HLA-A*02:01 (Homo sapiens, UniProt P04439, D140Y/D185E/D98H/E176V/E277Q/G131W/G231S/I119V/I121R/I166T/I218V/L300P/L318F/N151K/N90K/P208A/P217A/Q86G/Q94H/R138H/R169H/T345S)
Experiment: MHC binding assay (UV-ligand exchange, β2m ELISA, peptide exchange yield)
Conditions: MHC class I binding score; binding to HLA-A*02:01 ranged by peptide exchange yield (UV-ligand exchange, β2m ELISA)
Outline: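 Peptide–HLA-A*02:01 complexes were formed by UV-mediated exchange of a UV-cleavable ligand for the test peptide. Exchange yield was measured by capturing complexes on streptavidin, detecting with HRP anti-β2m antibody (1 h, 37°C) and reading TMB absorbance at 450 nm.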

Substance: 228 (AMQEYIAVV; listed as Homo sapiens) [compound 228]
Peptide exchange: ″++″ (≧20% = ++)

Substance: 229 (RLPGPLGTV; listed as Homo sapiens) [compound 229]
Peptide exchange: ″++″ (≧20% = ++)

Substance: 230 (ILVDWLVEV; listed as Homo sapiens) [compound 230]
Peptide exchange: ″+″ (≧10% = +)

Substance: 231 (FLSPQQPPLLL; listed as Homo sapiens) [compound 231]
Peptide exchange: ″++″ (≧20% = ++)

Substance: 232 (ALLEAQDVELYL; listed as Homo sapiens) [compound 232]
Peptide exchange: ″++″ (≧20% = ++)

Substance: 233 (VLSETLYEL; listed as Homo sapiens) [compound 233]
Peptide exchange: ″++″ (≧20% = ++)

Substance: 234 (ALMEDTGRQML; listed as Homo sapiens) [compound 234]
Peptide exchange: ″++″ (≧20% = ++)

Substance: 235 (YLNDLHEVLL; listed as Homo sapiens) [compound 235]
Peptide exchange: ″++++″ (≧75% = ++++)

Substance: 236 (GLLEAKVSL; listed as Homo sapiens) [compound 236]
Peptide exchange: ″+++″ (≧50% = +++)

Substance: 237 (ALLEASGTLLL; listed as Homo sapiens) [compound 237]
Peptide exchange: ″++++″ (≧75% = ++++)

Substance: 238 (YLISFQTHI; listed as Homo sapiens) [compound 238]
Peptide exchange: ″+++″ (≧50% = +++)

Substance: 239 (AAFAGKLLSV; listed as Homo sapiens) [compound 239]
Peptide exchange: ″+++″ (≧50% = +++)

Substance: 240 (ILLEQAFYL; listed as Homo sapiens) [compound 240]
Peptide exchange: ″+++″ (≧50% = +++)

Substance: 241 (SLVEVNPAYSV; listed as Homo sapiens) [compound 241]
Peptide exchange: ″+++″ (≧50% = +++)

Substance: 243 (LLLNELPSV; listed as Homo sapiens) [compound 243]
Peptide exchange: ″+++″ (≧50% = +++)

Substance: 244 (SLFGGTEITI; listed as Homo sapiens) [compound 244]
Peptide exchange: ″+++″ (≧50% = +++)

Substance: 245 (SMIDDLLGV; listed as Homo sapiens) [compound 245]
Peptide exchange: ″+++″ (≧50% = +++)

Substance: 246 (LLWEVVSQL; listed as Homo sapiens) [compound 246]
Peptide exchange: ″+++″ (≧50% = +++)

Substance: 248 (FLFPNQYVDV; listed as Homo sapiens) [compound 248]
Peptide exchange: ″+++″ (≧50% = +++)

Substance: 249 (LLDGFLVNV; listed as Homo sapiens) [compound 249]
Peptide exchange: ″+++″ (≧50% = +++)

Substance: 250 (ALSEEGLLVYL; listed as Homo sapiens) [compound 250]
Peptide exchange: ″+++″ (≧50% = +++)

Substance: 251 (ALYTGFSILV; listed as Homo sapiens) [compound 251]
Peptide exchange: ″++″ (≧20% = ++)

Substance: 252 (LLIGTDVSL; listed as Homo sapiens) [compound 252]
Peptide exchange: ″+++″ (≧50% = +++)

Substance: 253 (GLDAATATV; listed as Homo sapiens) [compound 253]
Peptide exchange: ″++″ (≧20% = ++)

Substance: 254 (TLLAFIMEL; listed as Homo sapiens) [compound 254]
Peptide exchange: ″+++″ (≧50% = +++)

Substance: 255 (VLASYNLTV; listed as Homo sapiens) [compound 255]
Peptide exchange: ″+++″ (≧50% = +++)

Substance: 256 (FLPPEHTIVYI; listed as Homo sapiens) [compound 256]
Peptide exchange: ″+++″ (≧50% = +++)

Substance: 257 (SIFSAFLSV; listed as Homo sapiens) [compound 257]
Peptide exchange: ″+++″ (≧50% = +++)

Substance: 258 (ELAERVPAI; listed as Homo sapiens) [compound 258]
Peptide exchange: ″++″ (≧20% = ++)

Substance: 261 (YVLEFLEEI; listed as Homo sapiens) [compound 261]
Peptide exchange: ″++″ (≧20% = ++)

Substance: 262 (LLWGDLIWL; listed as Homo sapiens) [compound 262]
Peptide exchange: ″+++″ (≧50% = +++)

Substance: 263 (LLVSNLDFGV; listed as Homo sapiens) [compound 263]
Peptide exchange: ″+++″ (≧50% = +++)

Substance: 264 (SLQEQLHSV; listed as Homo sapiens) [compound 264]
Peptide exchange: ″+++″ (≧50% = +++)

Substance: 265 (LLFGGTKTV; listed as Homo sapiens) [compound 265]
Peptide exchange: ″++″ (≧20% = ++)

Substance: 266 (KITDTLIHL; listed as Homo sapiens) [compound 266]
Peptide exchange: ″+++″ (≧50% = +++)

Substance: 267 (ALQDFLLSV; listed as Homo sapiens) [compound 267]
Peptide exchange: ″+++″ (≧50% = +++)

Substance: 269 (RVLEVGALQAV; listed as Homo sapiens) [compound 269]
Peptide exchange: ″++″ (≧20% = ++)

Substance: 270 (LLLDEEGTFSL; listed as Homo sapiens) [compound 270]
Peptide exchange: ″++″ (≧20% = ++)

Substance: 271 (LVYPLELYPA; listed as Homo sapiens) [compound 271]
Peptide exchange: ″+++″ (≧50% = +++)

Substance: 272 (ALGNTVPAV; listed as Homo sapiens) [compound 272]
Peptide exchange: ″+++″ (≧50% = +++)

Substance: 273 (NLFQSVREV; listed as Homo sapiens) [compound 273]
Peptide exchange: ″++″ (≧20% = ++)

Substance: 274 (SLLFSLFEA; listed as Homo sapiens) [compound 274]
Peptide exchange: ″++″ (≧20% = ++)

Substance: 275 (YLVYILNEL; listed as Homo sapiens) [compound 275]
Peptide exchange: ″++″ (≧20% = ++)

Substance: 276 (ALFTFSPLTV; listed as Homo sapiens) [compound 276]
Peptide exchange: ″+++″ (≧50% = +++)

Substance: 277 (LLPPLESLATV; listed as Homo sapiens) [compound 277]
Peptide exchange: ″++″ (≧20% = ++)

Substance: 278 (QLLDVVLTI; listed as Homo sapiens) [compound 278]
Peptide exchange: ″++″ (≧20% = ++)

Substance: 279 (ALWGGTQPLL; listed as Homo sapiens) [compound 279]
Peptide exchange: ″++″ (≧20% = ++)

The remaining lines, values ahead:

Peptide exchange: ″+++″ (≧50% = +++)
Substance: 280 (VLPDPEVLEAV; listed as Homo sapiens) [compound 280]

Peptide exchange: ″+++″ (≧50% = +++)
Substance: 281 (ILRESTEEL; listed as Homo sapiens) [compound 281]

Peptide exchange: ″+++″ (≧50% = +++)
Substance: 282 (LLADVVPTT; listed as Homo sapiens) [compound 282]

Peptide exchange: ″+++″ (≧50% = +++)
Substance: 284 (ILLSQTTGV; listed as Homo sapiens) [compound 284]

Peptide exchange: ″+++″ (≧50% = +++)
Substance: 285 (QLLHVGVTV; listed as Homo sapiens) [compound 285]

Peptide exchange: ″+++″ (≧50% = +++)
Substance: 286 (YLFPGIPEL; listed as Homo sapiens) [compound 286]

Peptide exchange: ″+++″ (≧50% = +++)
Substance: 287 (FLNEFFLNV; listed as Homo sapiens) [compound 287]

Peptide exchange: ″+++″ (≧50% = +++)
Substance: 288 (NLINEINGV; listed as Homo sapiens) [compound 288]

Peptide exchange: ″++++″ (≧75% = ++++)
Substance: 289 (VLLEIEDLQV; listed as Homo sapiens) [compound 289]

Peptide exchange: ″+++″ (≧50% = +++)
Substance: 295 (VLDRESPNV; listed as Homo sapiens) [compound 295]

Peptide exchange: ″+++″ (≧50% = +++)
Substance: 296 (FMEGAIIYV; listed as Homo sapiens) [compound 296]

Peptide exchange: ″+++″ (≧50% = +++)
Substance: 297 (VLADIELAQA; listed as Homo sapiens) [compound 297]

Peptide exchange: ″+++″ (≧50% = +++)
Substance: 298 (VMITKLVEV; listed as Homo sapiens) [compound 298]

Peptide exchange: ″+++″ (≧50% = +++)
Substance: 299 (YLLETSGNL; listed as Homo sapiens) [compound 299]

Peptide exchange: ″+++″ (≧50% = +++)
Substance: 300 (ALLGQTFSL; listed as Homo sapiens) [compound 300]

Peptide exchange: ″+++″ (≧50% = +++)
Substance: 301 (FLVEDLVDSL; listed as Homo sapiens) [compound 301]

Peptide exchange: ″+++″ (≧50% = +++)
Substance: 302 (ALLQEGEVYSA; listed as Homo sapiens) [compound 302]

Peptide exchange: ″++++″ (≧75% = ++++)
Substance: 303 (AILPQLFMV; listed as Homo sapiens) [compound 303]

Peptide exchange: ″+++″ (≧50% = +++)
Substance: 304 (MTLGQIYYL; listed as Homo sapiens) [compound 304]

Peptide exchange: ″++++″ (≧75% = ++++)
Substance: 305 (SIANFSEFYV; listed as Homo sapiens) [compound 305]

Peptide exchange: ″+++″ (≧50% = +++)
Substance: 306 (ALVNVQIPL; listed as Homo sapiens) [compound 306]

Peptide exchange: ″+++″ (≧50% = +++)
Substance: 307 (ALPVSLPQI; listed as Homo sapiens) [compound 307]

Peptide exchange: ″+++″ (≧50% = +++)
Substance: 308 (SQYSGQLHEV; listed as Homo sapiens) [compound 308]

Peptide exchange: ″+++″ (≧50% = +++)
Substance: 309 (GLFDGVPTTA; listed as Homo sapiens) [compound 309]

Peptide exchange: ″++++″ (≧75% = ++++)
Substance: 310 (FLVDTPLARA; listed as Homo sapiens) [compound 310]

Peptide exchange: ″+++″ (≧50% = +++)
Substance: 311 (RLYTGMHTV; listed as Homo sapiens) [compound 311]

Peptide exchange: ″+++″ (≧50% = +++)
Substance: 312 (IISDLTIAL; listed as Homo sapiens) [compound 312]

Peptide exchange: ″+++″ (≧50% = +++)
Substance: 313 (VLFDDELLMV; listed as Homo sapiens) [compound 313]

Peptide exchange: ″+++″ (≧50% = +++)
Substance: 314 (ALIAEGIALV; listed as Homo sapiens) [compound 314]

Peptide exchange: ″+++″ (≧50% = +++)
Substance: 315 (YLQDVVEQA; listed as Homo sapiens) [compound 315]

Peptide exchange: ″+++″ (≧50% = +++)
Substance: 316 (ILLERLWYV; listed as Homo sapiens) [compound 316]
